Series [1] deals with skin. The experiment in a line: Dermapathology evaluation of cutaneous biopsies from study subjects. The class given is in vivo, human. An excerpt:
Dose escalation was complete with 17 subjects evaluable for DLT toxicity and 16 evaluable for efficacy (see Table 2). […] One non-treatment-related death was due to disease progression. […] Twelve subjects have available efficacy data; 4 subjects have not yet been restaged. Two subjects with refractory NSCLC achieved a complete response. Six additional subjects had stable disease as best response.

For series [2], the system named is patients with advanced solid tumors. The experiment in a line: Phase I study of ganitumab plus everolimus: DLT, MTD/RPTD and adverse events (NCI Common Toxicity Criteria version 4.0). The class given is in vivo. Particulars: subjects on G+E, summary. Here is the method: The maximum tolerated doses/recommended phase II dose for the doublet combination, ganitumab (G) plus everolimus (E) followed by an expanded cohort was evaluated to better understand the safety and tolerability profile of this drug combination.
The primary objective of this study was to determine the maximum tolerated dose (MTD) and Recommended Phase II Dose (RPTD) of G+E in patients with advanced solid tumors. Secondary objectives were to describe any toxicities associated with this regimen and to preliminarily describe clinical activity (progression-free survival (PFS)), overall survival (OS), partial response (PR), complete response (CR) or stable disease (SD)>6 months.
For dose escalation, eligible patients had advanced solid tumors with adequate organ function and no increased risk for class-related toxicities. G was given intravenously, and E was orally administered; cycle length was 28 days. Stage I was a dose escalation; cohort size: 3-6 patients; Stage II was an expansion at MTD with a cohort size of 20 patients.
An intermediate dose of E at 5 mg five times weekly was added to better maximize dose intensity. Dose limiting toxicity (DLT) was assessed in cycle 1.
AEs were graded according to the NCI Common Toxicity Criteria version 4.0. Efficacy was assessed every 2 cycles with computed tomography (CT) using Response Evaluation Criteria in Solid Tumors (RECIST 1.1) guidelines.

For the substance ganitumab, the “Finding in the third cutaneous biopsy” value in series [1] (interpreted as part of the skin toxicity to G) is recorded as “spongiotic dermatitis with mixed inflammatory infiltrate with abundant eosinophils”. The “Cutaneous biopsies revealing hypersensitivity reaction in the form of superficial perivascular dermatitis” value in series [1] (mild perivascular lymphocytic infiltrate with eosinophils, subjects on G+E) is listed as 2 out of 3. Besides, the Skin toxicities entry in series [2] is recorded as “consistent with hypersensitivity to Ganitumab”.

The values above are taken from US9700619B2, “Combination drug therapy for the treatment of solid tumors” (Duke University, priority 2011, dated 2017).
